Among the data in paper PMC4102529, “FRET Based Quantification and Screening Technology Platform for the Interactions of Leukocyte Function-Associated Antigen-1 (LFA-1) with InterCellular Adhesion Molecule-1 (ICAM-1)” (PLoS ONE, 2014) are inhibition efficiency of the LFA-1/D1-D2-Fc interaction, Kd and FRET efficiency (%) values, retold here.

Test [1] addresses human recombinant ICAM-1 (D1-D2-Fc), Alexa Fluor 555 conjugate (human) (UniProt P05362). Description: FRET or BRET; steady-state, in solution competition screening, 96-well plate; Alexa Fluor 488-LFA-1 (100 nM) mixed with peptide (0.02, 0.2, 2, 20 µM), then incubated with Alexa Fluor 555-D1-D2-Fc (100 nM) for 30 min in the dark; PBS pH 7.4, 1 mM EGTA, 2 mM Mg2+; inhibition efficiency from the FRET efficiency.

For test [2], the target named is recombinant human integrin LFA-1 (αLβ2), Alexa Fluor 488 conjugate (human) (UniProt P20701). Description: FRET or BRET; steady-state, in solution, 96-well plate; Alexa Fluor 488-LFA-1 (donor) fixed at 100 nM, Alexa Fluor 555-D1-D2-Fc (acceptor) varied from 0 to 1.6 µM; PBS pH 7.4, 1 mM EGTA, 2 mM Mg2+; fit assuming one-to-one interaction.
Sequence of recombinant human integrin LFA-1 (αLβ2), Alexa Fluor 488 conjugate (human) (P20701 26-1090, chain 1 of 2): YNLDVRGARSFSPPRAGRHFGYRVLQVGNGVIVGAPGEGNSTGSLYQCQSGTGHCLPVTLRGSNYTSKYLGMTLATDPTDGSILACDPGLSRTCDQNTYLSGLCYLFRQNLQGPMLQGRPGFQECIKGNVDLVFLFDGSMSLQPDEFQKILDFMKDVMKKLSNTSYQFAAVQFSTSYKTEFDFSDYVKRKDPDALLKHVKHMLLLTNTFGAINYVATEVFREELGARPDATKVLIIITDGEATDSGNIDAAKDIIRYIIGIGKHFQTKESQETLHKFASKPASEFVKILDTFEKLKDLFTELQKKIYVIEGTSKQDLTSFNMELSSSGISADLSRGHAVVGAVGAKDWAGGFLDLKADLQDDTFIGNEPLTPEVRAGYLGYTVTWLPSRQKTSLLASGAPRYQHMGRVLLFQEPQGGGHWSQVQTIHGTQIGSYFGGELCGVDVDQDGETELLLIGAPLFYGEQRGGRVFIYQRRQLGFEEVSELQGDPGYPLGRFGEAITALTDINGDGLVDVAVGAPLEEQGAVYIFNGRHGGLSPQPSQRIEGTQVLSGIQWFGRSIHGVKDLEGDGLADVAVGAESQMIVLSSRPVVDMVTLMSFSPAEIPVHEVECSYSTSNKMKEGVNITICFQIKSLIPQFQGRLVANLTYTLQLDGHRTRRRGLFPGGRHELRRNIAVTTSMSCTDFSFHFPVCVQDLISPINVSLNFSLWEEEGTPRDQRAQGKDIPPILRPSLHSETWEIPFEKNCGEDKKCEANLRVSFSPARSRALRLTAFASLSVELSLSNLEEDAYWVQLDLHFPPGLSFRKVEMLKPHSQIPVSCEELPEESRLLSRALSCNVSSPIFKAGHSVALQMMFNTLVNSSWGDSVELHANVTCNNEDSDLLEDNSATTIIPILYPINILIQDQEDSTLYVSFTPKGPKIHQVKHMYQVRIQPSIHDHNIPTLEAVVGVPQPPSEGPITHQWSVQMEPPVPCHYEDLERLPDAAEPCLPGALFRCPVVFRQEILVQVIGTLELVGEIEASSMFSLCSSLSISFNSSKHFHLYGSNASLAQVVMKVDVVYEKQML
Sequence of recombinant human integrin LFA-1 (αLβ2), Alexa Fluor 488 conjugate (human) (P05107 23-700, chain 2 of 2, further chain): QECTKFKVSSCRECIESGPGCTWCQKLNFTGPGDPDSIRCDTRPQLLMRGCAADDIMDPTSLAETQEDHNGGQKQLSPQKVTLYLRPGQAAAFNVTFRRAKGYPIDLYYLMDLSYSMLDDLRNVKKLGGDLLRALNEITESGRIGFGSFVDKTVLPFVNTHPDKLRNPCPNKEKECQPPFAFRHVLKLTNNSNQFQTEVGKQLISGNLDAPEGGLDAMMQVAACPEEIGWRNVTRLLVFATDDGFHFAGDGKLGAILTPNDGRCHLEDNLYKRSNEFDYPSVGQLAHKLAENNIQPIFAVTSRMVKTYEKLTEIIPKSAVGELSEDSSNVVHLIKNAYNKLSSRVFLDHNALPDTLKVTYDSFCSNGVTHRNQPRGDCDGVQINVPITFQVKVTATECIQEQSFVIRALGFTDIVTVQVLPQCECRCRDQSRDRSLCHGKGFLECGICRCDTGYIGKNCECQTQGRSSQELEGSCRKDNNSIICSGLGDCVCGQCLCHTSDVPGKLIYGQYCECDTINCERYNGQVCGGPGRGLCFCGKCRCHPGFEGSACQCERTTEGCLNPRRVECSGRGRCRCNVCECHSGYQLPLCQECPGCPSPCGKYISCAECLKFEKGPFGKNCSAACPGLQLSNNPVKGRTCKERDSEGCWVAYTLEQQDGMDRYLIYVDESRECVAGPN
Test [3] addresses human recombinant ICAM-1 (D1-D2-Fc), Alexa Fluor 555 conjugate (human) (UniProt P05362). Description: FRET or BRET; steady-state, in solution; emission spectra at 470 nm excitation of mixtures with Alexa Fluor 555-D1-D2-Fc constant at 100 nM and Alexa Fluor 488-LFA-1 at 25-300 nM (A/D 8.40-0.70); incubated 30 minutes at room temperature; FRET efficiency by Eq. (3).

Sequence of human recombinant ICAM-1 (D1-D2-Fc), Alexa Fluor 555 conjugate (human) (P05362 28-532): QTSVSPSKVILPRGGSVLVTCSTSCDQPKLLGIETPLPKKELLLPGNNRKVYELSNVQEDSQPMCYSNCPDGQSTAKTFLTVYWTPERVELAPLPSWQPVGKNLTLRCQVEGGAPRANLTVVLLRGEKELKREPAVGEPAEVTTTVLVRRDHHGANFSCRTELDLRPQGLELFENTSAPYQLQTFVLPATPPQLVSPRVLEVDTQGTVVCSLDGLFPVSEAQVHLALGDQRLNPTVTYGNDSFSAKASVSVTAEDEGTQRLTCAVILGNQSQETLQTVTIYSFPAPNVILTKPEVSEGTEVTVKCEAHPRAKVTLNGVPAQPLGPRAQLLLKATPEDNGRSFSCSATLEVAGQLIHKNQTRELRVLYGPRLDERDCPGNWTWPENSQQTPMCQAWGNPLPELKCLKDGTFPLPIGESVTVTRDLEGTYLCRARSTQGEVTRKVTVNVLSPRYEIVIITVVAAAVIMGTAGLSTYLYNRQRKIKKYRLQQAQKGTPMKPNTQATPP

For the substance CD11a(441–465) peptide, in test [1], the inhibition efficiency of the LFA-1/D1-D2-Fc interaction at 0.02 µM peptide stood at 20.9%, the inhibition efficiency of the LFA-1/D1-D2-Fc interaction at 0.2 µM peptide was 37.1%, the inhibition efficiency of the LFA-1/D1-D2-Fc interaction at 2 µM peptide was 46.9% and the inhibition efficiency of the LFA-1/D1-D2-Fc interaction at 20 µM peptide was determined as 62%.

Turning to “human recombinant ICAM-1 (D1-D2-Fc), Alexa Fluor 555 conjugate (from UniProt P05362 28-532) (Fc fusion)”, the Kd in test [2] stood at 17.9 nM.

Regarding “recombinant human integrin LFA-1 (αLβ2), Alexa Fluor 488 conjugate (from UniProt P20701 26-1090; P05107 23-700) (complex)”, the FRET efficiency (%) at A/D ratio 2.12 (100 nM LFA-1) in test [3] was determined as 53.5%.
